The values that follow are results of earlier work, collected in patent US12128089B2 (Slayback Pharma LLC, priority 2022, dated 2024).

For data set [1] the following is noted: neutral aqueous solution.
For data set [2] the following is noted: dilute aqueous solutions, random coil conformation.
Assay in data set [3]: not given
The source holds these as a separate data set.

Assay in data set [4]: not given
This is another data set of the same source.

Read-outs that look alike come from different tables or passages of the source. Some results are limits rather than exact numbers.

Take Glucagon: the “Solubility in aqueous solutions” value is over 10 mg/mL (pH less than 3 or greater than 9) and under 0.1 mg/mL (pH range of 4 to 8). Besides, the Precipitation after preparation result in data set [1] is listed as “precipitates within an hour of preparation”. In data set [2], the “α-helix at the C-terminal end” value is 15%. Also, in data set [3], the Half-life in plasma is 3 to 6 min. Also, in data set [4], the “Onset of action post injection” value was 5 to 20 min.
